Test results from the RNAGym collection of RNA variant scans (doi:10.7554/elife.80360).

B1: HDV Ribozyme (parent)
chain: GGCCGGCAUGGUCCCAGCCUCCUCGCUGGCGCCGGCUGGGCAACAUUCCGAGGGGACCGUCCCCUCGGUAAUGGCGAAUGGGACCCA

Variants of: B1
Test: self-cleavage, relative activity (ratio to wild type); higher = more cleavage; co-transcriptional

| Variant | self-cleavage |
| --- | --- |
| C44A A87G | 0.649 |
| C44G G53C | 0.733 |
| A45U G81A | 0.259 |
| A43G U79A | 0.192 |
| A43U C63G | 0.394 |
| A45C G67C | 0.731 |
| C44G U46A | 0.9 |
| A43G A83U | 0.266 |
| A42U G74C | 0.17 |
| A42U G74A | 0.343 |
| A43U A70C | 0.554 |
| A43U A70U | 0.59 |
| A43U A70G | 1.05 |
| A42U C86A | 0.492 |
| A42U C86G | 0.519 |
| A45G U47G | 0.767 |
| C44A G52C | 0.902 |
| C44G A78U | 0.19 |
| C44G A51G | 0.653 |
| C44A U79G | 0.128 |
| A42U G80A | 0.16 |
| A43G C75U | 0.0573 |
| A43G C75G | 0.161 |
| A43G C75A | 0.172 |

| Variant | self-cleavage |
| --- | --- |
| A45C U46A | 0.499 |
| A43U G59C | 0.502 |
| A43C A87U | 0.59 |
| A43U C84U | 0.151 |
| A45G G52C | 1.01 |
| A45G G52A | 0.875 |
| A45U U60G | 0.643 |
| C44U G53U | 0.831 |
| C44U G53C | 0.658 |
| C44U G76C | 0.725 |
| C44U G76A | 0.87 |
| A43G C48U | 0.587 |
| A43G C48G | 0.719 |
| A43U A45C | 0.877 |
| C44U A45U | 0.787 |
| A43U C48A | 0.424 |
| C44G G52A | 0.636 |
| C44G G52U | 0.727 |
| C44U U60C | 0.872 |
| C44U G81A | 0.224 |
| A43G A87G | 0.634 |
| A43G A87C | 0.688 |
| C44G C58G | 0.665 |
| C44G A71U | 0.962 |

| Variant | self-cleavage |
| --- | --- |
| A45U C49U | 0.706 |
| A43C A77U | 0 |
| A43C A77C | 0.0923 |
| A43G C57A | 0.628 |
| A43G C57U | 0.974 |
| A43G C57G | 0.356 |
| A43C G67C | 0.243 |
| A45G G53A | 0.991 |
| A43U U69C | 0.494 |
| A45C C62U | 0.895 |
| A43C C44U | 0.923 |
| A43C C44G | 0.458 |
| A45C G74A | 0.354 |
| A45C G74C | 0.0594 |
| A43C G80U | 0.0825 |
| A43C G80C | 0.194 |
| C44U C57A | 0.672 |
| A43U G50U | 0.458 |
| C44U C75U | 0.157 |
| C44U C75G | 0.106 |
| C44G C63G | 0.441 |
| A43G C49U | 0.469 |
| C44U U72C | 0.779 |
| A45G A56C | 1.3 |

| Variant | self-cleavage |
| --- | --- |
| A42U G76U | 0.745 |
| A43C C86U | 0.649 |
| C44G G81C | 0.306 |
| A45U U79G | 0.506 |
| A45C U72A | 0.89 |
| A45C U72G | 1.11 |
| A45G C85U | 1.06 |
| A45C A87G | 0.554 |
| A43U C61A | 0.532 |
| U46A C58U | 0.482 |
| U46A C58A | 0.57 |
| C44G U79A | 0.388 |
| A43G U72A | 0.453 |
| A43G G73U | 0.0755 |
| A43G G73C | 0.256 |
| A43G G82A | 0.138 |
| A43G G82U | 0.189 |
| A43G G76A | 0.391 |
| A43U C58U | 0.462 |
| A45U C57A | 0.906 |
| A43G U46G | 0.499 |
| A43G U46C | 0.443 |
| A45U G80A | 0.205 |
| C44U C62U | 0.443 |

| Variant | self-cleavage |
| --- | --- |
| C44U U69C | 0.814 |
| C44U U69A | 0.787 |
| A43C G76A | 0.554 |
| A43U C66A | 0.415 |
| A45G A87U | 0.911 |
| A45U G54A | 0.939 |
| C44U C48A | 0.779 |
| A43G G52A | 0.577 |
| A43G G52C | 0.796 |
| A43C U47A | 0.506 |
| A45C A56C | 0.712 |
| C44U C84U | 0.516 |
| A45G C86U | 0.806 |
| C44A G76C | 0.614 |
| C44A G76U | 0.767 |
| C44A C66U | 0.809 |
| C44U C85G | 0.673 |
| A43G A71C | 1.01 |
| A43G A71U | 0.95 |
| C44U A87C | 0.618 |
| C44G G50A | 0.657 |
| A43U U46A | 0.653 |
| A45C A83U | 0.356 |
| A45C A83C | 0.0615 |

| Variant | self-cleavage |
| --- | --- |
| A43U A83U | 0.125 |
| A43U A83C | 0.0923 |
| A45C G80C | 0.0504 |
| A43U A87U | 0.425 |
| A45U A83G | 0.847 |
| A45U C61G | 0.815 |
| C44U A77G | 0.923 |
| C44A U69C | 0.677 |
| C44A U69A | 0.727 |
| C44U C58U | 0.755 |
| A45C C64G | 0.649 |
| A45U A70C | 0.95 |
| C44G C49G | 0.68 |
| C44A A51U | 1.13 |
| C44A A51G | 0.898 |
| C44A G82A | 0.153 |
| C44A G82C | 0.0773 |
| A43C G54A | 0.415 |
| A43C A56U | 0.584 |
| C44A G67A | 0.415 |
| C44A G67U | 0.658 |
| A43G C86A | 0.712 |
| A43G C86G | 0.727 |
| C44U A78C | 0.113 |

| Variant | self-cleavage |
| --- | --- |
| A43C U69A | 0.532 |
| A45U G50U | 0.793 |
| A45C G50C | 0.504 |
| A43G G50C | 0.739 |
| A43G G50A | 0.502 |
| A42U U65G | 0.457 |
| A43C C84G | 0.237 |
| A43C C84A | 0.332 |
| A45U G55U | 0.698 |
| A45U G55C | 0.956 |
| U46A A83G | 0.378 |
| U46A A83U | 0.277 |
| U46A A83C | 0.323 |
| A45G G59A | 1.06 |
| C44G G68C | 0.475 |
| A45U C84A | 0.446 |
| C44U G73A | 0.946 |
| A45G A83G | 0.95 |
| A43U A77C | 0.0519 |
| A45C C85G | 0.609 |
| C44A C48A | 0.88 |
| C44G A70U | 0.804 |
| A45U C66A | 0.812 |
